In US20240400708A1:
Residue numbers refer to the chain shown, from its start. Names may count otherwise.

B1: feline IgG1a S252H/S428M/S434F (antibody, part only; not given: Variable domains, not shown: another chain or arm of the molecule)
constant: ASTTAPSVFPLAPSCGTTSGATVALACLVLGYFPEPVTVSWNSGALTSGVHTFPAVLQASGLYSLSSMVTVPSSRWLSDTFTCNVAHPPSNTKVDKTVRKTDHPPGPKPCDCPKCPPPEMLGGPSIFIFPPKPKDTLHISRTPEVTCLVVDLGPDDSDVQITWFVDNTQVYTAKTSPREEQFNSTYRVVSVLPILHQDWLKGKEFKCKVNSKSLPSPIERTISKAKGQPHEPQVYVLPPAQEELSRNKVSVTCLIKSFHPPDIAVEWEITGQPEPENNYRTTPPQLDSDGTYFVYSKLSVDRSHWQRGNTYTCSVMHEALHFHHTQKSLTQSPGK
B2: feline IgG1a S252H/S428M/S434L (antibody, part only; not given: Variable domains, not shown: another chain or arm of the molecule)
constant: B1 constant with F322L
B3: feline IgG1a S252H/S428M/S434P (antibody, part only; not given: Variable domains, not shown: another chain or arm of the molecule)
constant: B1 constant with F322P
B4: feline IgG1a S252H/S428M/S434W (antibody, part only; not given: Variable domains, not shown: another chain or arm of the molecule)
constant: B1 constant with F322W
B5: feline IgG1a S252H/S428M/S434Y (antibody, part only; not given: Variable domains, not shown: another chain or arm of the molecule)
constant: B1 constant with F322Y
B6: feline IgG1a S252H/S434F (antibody, part only; not given: Variable domains, not shown: another chain or arm of the molecule)
constant: B1 constant with M316S
B7: feline IgG1a S252H/S434L (antibody, part only; not given: Variable domains, not shown: another chain or arm of the molecule)
constant: B1 constant with M316S, F322L
B8: feline IgG1a S252H/S434P (antibody, part only; not given: Variable domains, not shown: another chain or arm of the molecule)
constant: B1 constant with M316S, F322P
B9: feline IgG1a S252H/S434W (antibody, part only; not given: Variable domains, not shown: another chain or arm of the molecule)
constant: B1 constant with M316S, F322W
B10: feline IgG1a S252H/S434Y (antibody, part only; not given: Variable domains, not shown: another chain or arm of the molecule)
constant: B1 constant with M316S, F322Y
B11: feline IgG1a D312R (antibody, part only; not given: Variable domains, not shown: another chain or arm of the molecule)
constant: B1 constant with H138S, D198R, M316S, F322S
B12: feline IgG1a S252M/S428M (antibody, part only; not given: Variable domains, not shown: another chain or arm of the molecule)
constant: B1 constant with H138M, F322S
B13: feline IgG1a S252M/S428M/S434N (antibody, part only; not given: Variable domains, not shown: another chain or arm of the molecule)
constant: B1 constant with H138M, F322N
B14: feline IgG1a S252M/S428M/S434N/H436Y (antibody, part only; not given: Variable domains, not shown: another chain or arm of the molecule)
constant: B1 constant with H138M, F322N, H324Y
B15: feline IgG1a S252M/S434N (antibody, part only; not given: Variable domains, not shown: another chain or arm of the molecule)
constant: B1 constant with H138M, M316S, F322N
B16: feline IgG1a S252Y/S428M (antibody, part only; not given: Variable domains, not shown: another chain or arm of the molecule)
constant: B1 constant with H138Y, F322S
B17: feline IgG1a S252Y/S428M/D312P (antibody, part only; not given: Variable domains, not shown: another chain or arm of the molecule)
constant: B1 constant with H138Y, D198P, F322S
B18: feline IgG1a S252Y/S428M/L314K (antibody, part only; not given: Variable domains, not shown: another chain or arm of the molecule)
constant: B1 constant with H138Y, L200K, F322S
B19: feline IgG1a S252Y/S428M/Q311W (antibody, part only; not given: Variable domains, not shown: another chain or arm of the molecule)
constant: B1 constant with H138Y, Q197W, F322S
B20: feline IgG1a S252Y/S428M/Q311Y (antibody, part only; not given: Variable domains, not shown: another chain or arm of the molecule)
constant: B1 constant with H138Y, Q197Y, F322S
B21: feline IgG1a S252Y/S428M/S434F (antibody, part only; not given: Variable domains, not shown: another chain or arm of the molecule)
constant: B1 constant with H138Y
B22: feline IgG1a D399M (antibody, part only; not given: Variable domains, not shown: another chain or arm of the molecule)
constant: B1 constant with H138S, D287M, M316S, F322S
B23: feline IgG1a S252Y/S428M/S434L (antibody, part only; not given: Variable domains, not shown: another chain or arm of the molecule)
constant: B1 constant with H138Y, F322L
B24: feline IgG1a S252Y/S428M/S434P (antibody, part only; not given: Variable domains, not shown: another chain or arm of the molecule)
constant: B1 constant with H138Y, F322P
B25: feline IgG1a mutant ID No. 246: S252Y, S428M, S434W (antibody, part only; not given: Variable domains, not shown: another chain or arm of the molecule)
constant: B1 constant with H138Y, F322W
B26: feline IgG1a mutant ID No. 247: S252Y, S428M, S434Y (antibody, part only; not given: Variable domains, not shown: another chain or arm of the molecule)
constant: B1 constant with H138Y, F322Y
B27: feline IgG1a mutant ID No. 248: S428M, D312P (antibody, part only; not given: Variable domains, not shown: another chain or arm of the molecule)
constant: B1 constant with H138S, D198P, F322S
B28: feline IgG1a mutant ID No. 249: S428M, L314K (antibody, part only; not given: variable domains and light chain, not shown: another chain or arm of the molecule; small tags and cut ends)
constant: B1 constant with H138S, L200K, F322S
B29: feline IgG1a mutant ID No. 250: S428M, Q311W (antibody, part only; not given: Variable domains, not shown: another chain or arm of the molecule)
constant: B1 constant with H138S, Q197W, F322S
B30: feline IgG1a mutant ID No. 251: S428M, Q311Y (antibody, part only; not given: Variable domains, not shown: another chain or arm of the molecule)
constant: B1 constant with H138S, Q197Y, F322S
B31: feline IgG1a D399V (antibody, part only; not given: Variable domains, not shown: another chain or arm of the molecule)
constant: B1 constant with H138S, D287V, M316S, F322S
B32: feline IgG1a G402R (antibody, part only; not given: Variable domains, not shown: another chain or arm of the molecule)
constant: B1 constant with H138S, G290R, M316S, F322S
B33: feline IgG1a L309G (antibody, part only; not given: Variable domains, not shown: another chain or arm of the molecule)
constant: B1 constant with H138S, L195G, M316S, F322S
B34: feline IgG1a L309I (antibody, part only; not given: variable domains, not shown: another chain or arm of the molecule)
constant: B1 constant with H138S, L195I, M316S, F322S
B35: feline IgG1a Q311F (antibody, part only; not given: Variable domains, not shown: another chain or arm of the molecule)
constant: B1 constant with H138S, Q197F, M316S, F322S
B36: feline IgG1a mutant ID No. 323: S428Y, D312P, S434Y, D399M, D401R, T403R (antibody, part only; not given: Variable domains, not shown: another chain or arm of the molecule)
constant: B1 constant with H138S, D198P, D287M, D289R, T291R, M316Y, F322Y
B37: feline IgG1a Q311H (antibody, part only; not given: Variable domains, not shown: another chain or arm of the molecule)
constant: B1 constant with H138S, Q197H, M316S, F322S
B38: feline IgG1a Q311I (antibody, part only; not given: Variable domains, not shown: another chain or arm of the molecule)
constant: B1 constant with H138S, Q197I, M316S, F322S
B39: feline IgG1a Q311K (antibody, part only; not given: Variable domains, not shown: another chain or arm of the molecule)
constant: B1 constant with H138S, Q197K, M316S, F322S
B40: feline IgG1a mutant ID No. 350: S252Y, S428M, S434F, Q311M (antibody, part only; not given: Variable domains, not shown: another chain or arm of the molecule)
constant: B1 constant with H138Y, Q197M
B41: feline IgG1a mutant ID No. 353: S252Y, S428M, S434F, S254V (antibody, part only; not given: Variable domains, not shown: another chain or arm of the molecule)
constant: B1 constant with H138Y, S140V
B42: feline IgG1a Q311M (antibody, part only; not given: Variable domains, not shown: another chain or arm of the molecule)
constant: B1 constant with H138S, Q197M, M316S, F322S
B43: feline IgG1a Q311R (antibody, part only; not given: Variable domains, not shown: another chain or arm of the molecule)
constant: B1 constant with H138S, Q197R, M316S, F322S
B44: feline IgG1a Y404Q (antibody, part only; not given: Variable domains, not shown: another chain or arm of the molecule)
constant: B1 constant with H138S, Y292Q, M316S, F322S
B45: feline IgG1a S434F (antibody, part only; not given: Variable domains, not shown: another chain or arm of the molecule)
constant: B1 constant with H138S, M316S

Tests used:
[1] = target: feline FcRn complex (FcRn-α subunit and β-microglobulin) (feline); assay: SPR (Biacore), FcRn on SA chip, pH 7.4
[2] = target: feline FcRn complex (FcRn-α subunit and β-microglobulin) (feline); assay: SPR (Biacore), FcRn on SA chip, pH 6
[3] = target: feline FcRn complex (FcRn-α subunit and β-microglobulin), biotin labeled (feline); assay: SPR, pH 6
[4] = target: feline FcRn complex (FcRn-α subunit and β-microglobulin), biotin labeled (feline); assay: SPR, pH 7.4

| Molecule | Kd [1] | Kd [2] | Kd [3] | Kd [4] |
| --- | --- | --- | --- | --- |
| feline IgG1a mutant ID No. 358: S252Y, S434R, A431K (antibody) | 28.3 nM | 0.748 nM | – | – |
| feline IgG1a mutant ID No. 260: S252Y, S254T, T256E (antibody) | 66.5 nM | 13.2 nM | – | – |
| feline IgG1a mutant ID No. 365: S252Y, S434R, E430I (antibody) | 28.9 nM | 0.296 nM | – | – |
| feline IgG1a mutant ID No. 366: S252Y, S434R, E430I (antibody) | 26.1 nM | 0.322 nM | – | – |
| feline IgG1a mutant ID No. 278: S252R, S434H, Q311W (antibody) | 5910 nM | 5.45 nM | – | – |
| feline IgG1a mutant ID No. 357: S252Y, S434R, A431K (antibody) | 25.9 nM | 0.769 nM | – | – |
| B1 | – | – | 0.121 nM | 26.9 nM |
| B2 | – | – | 8.59 nM | 3.55 nM |
| B3 | – | – | 7.45 nM | 55.6 nM |
| B4 | – | – | 0.135 nM | 20.8 nM |
| B5 | – | – | 0.138 nM | 20.7 nM |
| B6 | – | – | 0.391 nM | 24.1 nM |
| B7 | – | – | 6.08 nM | 3.79 nM |
| B8 | – | – | 9.32 nM | 12.8 nM |
| B9 | – | – | 0.469 nM | 31.1 nM |
| B10 | – | – | 0.14 nM | 12.5 nM |
| B11 | – | – | 6.91 nM | 25 nM |
| B12 | – | – | 7.27 nM | 19.5 nM |
| B13 | – | – | 8.51 nM | 15.3 nM |
| B14 | – | – | 20.5 nM | 28.7 nM |
| B15 | – | – | 14.8 nM | 33.8 nM |
| B16 | – | – | 2.58 nM | 39.2 nM |
| B17 | – | – | 0.796 nM | 25.3 nM |
| B18 | – | – | 2.13 nM | 25 nM |
| B19 | – | – | 0.506 nM | 18.8 nM |
| B20 | – | – | 2.4 nM | 39.9 nM |

| Molecule | Kd [1] | Kd [2] | Kd [3] | Kd [4] |
| --- | --- | --- | --- | --- |
| B21 | – | – | 0.0207 nM | 9.13 nM |
| B22 | – | – | 5.33 nM | 46.8 nM |
| B23 | – | – | 6.91 nM | 28.9 nM |
| B24 | – | – | 4.86 nM | 44.4 nM |
| B25 | 7.91 nM | 0.0406 nM | – | – |
| B26 | 7.65 nM | 0.0902 nM | – | – |
| B27 | 23.7 nM | 5.7 nM | – | – |
| B28 | 19300 nM | 0.978 nM | – | – |
| B29 | 33.2 nM | 5.56 nM | – | – |
| B30 | 20.3 nM | 5.83 nM | – | – |
| B31 | – | – | 8.29 nM | 2880 nM |
| B32 | – | – | 6.1 nM | 1200 nM |
| B33 | – | – | 9.12 nM | 54.5 nM |
| B34 | – | – | 6.81 nM | 4530 nM |
| B35 | – | – | 8.85 nM | 1370 nM |
| B36 | 1300 nM | – | – | – |
| B37 | – | – | 5.84 nM | 93.7 nM |
| B38 | – | – | 7 nM | 77.1 nM |
| B39 | – | – | 4.85 nM | 1750 nM |
| B40 | 4.89 nM | – | – | – |
| B41 | 6.68 nM | – | – | – |
| B42 | – | – | 4.97 nM | 5100 nM |
| B43 | – | – | 4.56 nM | 67.2 nM |
| B44 | – | – | 9.96 nM | 9940 nM |
| B45 | – | – | 0.745 nM | 21 nM |
